Paper PMC5766158 (Nucleic Acids Research, 2017)
Changes are numbered by the printed parent chain. In names and notes the source's numbering stands.

T1: POLA2(1-414)-FG3 (human, UniProt Q14181 1-414)
T1 sequence: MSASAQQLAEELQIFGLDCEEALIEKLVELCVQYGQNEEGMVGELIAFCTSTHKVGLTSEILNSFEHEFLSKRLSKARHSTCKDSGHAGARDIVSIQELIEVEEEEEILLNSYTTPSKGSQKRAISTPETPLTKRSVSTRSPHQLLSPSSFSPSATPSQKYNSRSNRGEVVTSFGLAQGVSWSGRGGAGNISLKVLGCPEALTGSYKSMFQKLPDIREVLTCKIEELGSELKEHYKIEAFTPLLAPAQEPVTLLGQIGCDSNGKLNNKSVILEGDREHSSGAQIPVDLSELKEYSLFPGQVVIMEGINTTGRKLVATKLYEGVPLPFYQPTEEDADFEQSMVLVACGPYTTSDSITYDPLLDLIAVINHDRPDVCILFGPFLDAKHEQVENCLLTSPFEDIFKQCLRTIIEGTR

T2: POLA2-FLAG (human, UniProt Q14181 1-598)
T2 sequence: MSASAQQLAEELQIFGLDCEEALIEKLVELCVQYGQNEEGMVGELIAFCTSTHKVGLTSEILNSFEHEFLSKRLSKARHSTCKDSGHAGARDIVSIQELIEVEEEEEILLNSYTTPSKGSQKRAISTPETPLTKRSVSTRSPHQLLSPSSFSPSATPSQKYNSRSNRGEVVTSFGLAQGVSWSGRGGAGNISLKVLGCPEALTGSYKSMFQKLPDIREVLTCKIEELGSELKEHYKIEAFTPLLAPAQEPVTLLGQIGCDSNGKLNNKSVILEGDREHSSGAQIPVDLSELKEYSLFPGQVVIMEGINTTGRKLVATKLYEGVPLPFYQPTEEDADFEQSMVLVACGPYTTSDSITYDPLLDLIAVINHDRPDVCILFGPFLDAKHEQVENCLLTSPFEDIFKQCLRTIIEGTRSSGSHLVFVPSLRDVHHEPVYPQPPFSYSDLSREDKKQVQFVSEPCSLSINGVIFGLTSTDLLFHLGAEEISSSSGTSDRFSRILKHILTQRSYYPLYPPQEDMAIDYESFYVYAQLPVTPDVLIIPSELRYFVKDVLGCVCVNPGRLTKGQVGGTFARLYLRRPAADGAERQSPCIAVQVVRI

B1: full length STN1-Strep (STN1F-Strep) (natural protein)
chain: MQPGSSRCEEETPSLLWGLDPVFLAFAKLYIRDILDMKESRQVPGVFLYNGHPIKQVDVLGTVIGVRERDAFYSYGVDDSTGVINCICWKKLNTESVSAAPSAARELSLTSQLKKLQETIEQKTKIEIGDTIRVRGSIRTYREEREIHATTYYKVDDPVWNIQIARMLELPTIYRKVYDQPFHSSALEKEEALSNPGALDLPSLTSLLSEKAKEFLMENRVQSFYQQELEMVESLLSLANQPVIHSASSDQVNFKKDTTSKAIHSIFKNAIQLLQEKGLVFQKDDGFDNLYYVTREDKDLHRKIHRIIQQDCQKPNHMEKGCHFLHILACARLSIRPGLSEAVLQQVLELLEDQSDIVSTMEHYYTAF
B2: STN1N-Strep R135T (domain or fragment)
chain: MQPGSSRCEEETPSLLWGLDPVFLAFAKLYIRDILDMKESRQVPGVFLYNGHPIKQVDVLGTVIGVRERDAFYSYGVDDSTGVINCICWKKLNTESVSAAPSAARELSLTSQLKKLQETIEQKTKIEIGDTIRVTGSIRTYREEREIHATTYYKVDDPVWNIQIARMLELPTIYRKVYDQPFHSSALEKE
B3: STN1N-Strep R135W (domain or fragment)
chain: B2 chain with T135W
B4: STN1N-Strep OBM-2 (W89A/R139A/Y141A) (domain or fragment)
chain: B2 chain with W89A, T135R, R139A, Y141A
B5: STN1N-Strep (domain or fragment)
chain: B2 chain with T135R
B6: STN1N-Strep D157Y (domain or fragment)
chain: B2 chain with T135R, D157Y
B7: POLA2(1-334)-FG3 (domain or fragment)
chain: MSASAQQLAEELQIFGLDCEEALIEKLVELCVQYGQNEEGMVGELIAFCTSTHKVGLTSEILNSFEHEFLSKRLSKARHSTCKDSGHAGARDIVSIQELIEVEEEEEILLNSYTTPSKGSQKRAISTPETPLTKRSVSTRSPHQLLSPSSFSPSATPSQKYNSRSNRGEVVTSFGLAQGVSWSGRGGAGNISLKVLGCPEALTGSYKSMFQKLPDIREVLTCKIEELGSELKEHYKIEAFTPLLAPAQEPVTLLGQIGCDSNGKLNNKSVILEGDREHSSGAQIPVDLSELKEYSLFPGQVVIMEGINTTGRKLVATKLYEGVPLPFYQPTEED
B8: POLA2OB-FG3 (domain or fragment)
chain: GSYKSMFQKLPDIREVLTCKIEELGSELKEHYKIEAFTPLLAPAQEPVTLLGQIGCDSNGKLNNKSVILEGDREHSSGAQIPVDLSELKEYSLFPGQVVIMEGINTTGRKLVATKLYEGVPLPFYQPTEED

What was measured:
[1] = target: T1, POLA2(1-414)-FG3; assay: pull-down
[2] = target: T2, POLA2-FLAG; assay: cell-based or functional assay
[3] = target: B7; assay: pull-down
[4] = target: B1; assay: pull-down
[5] = target: B5; assay: pull-down

binding result [1]	Binder	further results
binds	B1	–
–	B2	PP stimulatory activity against wild-type STN1N (1.5 uM, poly-dT template) [2]: 2 fold
binds	B3	–
binds	B4	–
binds	B5	binding result [3]: binds
binds	B6	–
–	B7	binding result [4]: binds
–	B8	binding result [5]: binds
